Blank lines part the entries; values can stand above or below the molecule they belong to.
Columns and labels:
[1] = molecular target: N2.1/ROMK chimera with the N375PNF tract replaced with AAAA; assay: cell-based or functional assay
[2] = molecular target: T1, myc-tagged ARH (human, UniProt Q5SW96 1-308, limits assumed); assay: co-immunoprecipitation from COS-7 cells
T1 construct: Expressed in COS-7 cells
T1 sequence: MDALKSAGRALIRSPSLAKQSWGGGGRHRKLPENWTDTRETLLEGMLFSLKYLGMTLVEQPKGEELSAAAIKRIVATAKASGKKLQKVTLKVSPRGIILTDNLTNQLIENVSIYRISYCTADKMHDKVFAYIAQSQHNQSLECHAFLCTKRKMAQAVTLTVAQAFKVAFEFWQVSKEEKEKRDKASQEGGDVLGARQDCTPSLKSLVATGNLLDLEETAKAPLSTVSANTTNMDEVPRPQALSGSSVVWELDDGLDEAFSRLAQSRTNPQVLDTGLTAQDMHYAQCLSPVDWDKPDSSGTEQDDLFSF
Protocol: Using immunofluorescent confocal microscopy it was determined that ARH is predominately expressed in the distal nephron, where it co-localizes with ROMK in subapical and perinuclear compartments (FIG. 2A). See Example D. It was also determined that ROMK co-immunoprecipitates with ARH on anti-ARH antibody-bound beads but not with an unrelated IgG (FIG. 2B). The specificity of the ARH-ROMK co-immunoprecipitation was corroborated by similar studies with different antibodies, HA-epitope-tagged ROMK and myc-tagged-ARH in COS-7 cells (FIGS. 2C & D). Importantly, alanine replacement of the NPNF motif in ROMK completely abrogated the ARH-ROMK co-immunoprecipitation.

surface expression [1]: 100%
Molecule: ARH co-expressed in COS-7 cells (from UniProt Q5SW96 1-308)

binding result [2]: no binding
B1: HA-epitope-tagged mutant ROMK lacking the NPXF motif (alanine replacement of the NPNF motif) (other)
chain: MGASERSVFRVLIRALTERMFKHLRRWFITHIFGRSRQRARLVSKEGRCNIEFGNVDAQSRFIFFVDIWTTVLDLKWRYKMTVFITAFLGSWFLFGLLWYVVAYVHKDLPEFYPPDNRTPCVENINGMTSAFLFSLETQVTIGYGFRFVTEQCATAIFLLIFQSILGVIINSFMCGAILAKISRPKKRAKTITFSKNAVISKRGGKLCLLIRVANLRKSLLIGSHIYGKLLKTTITPEGETIILDQTNINFVVDAGNENLFFISPLTIYHIIDHNSPFFHMAAETLSQQDFELVVFLDGTVESTSATCQVRTSYVPEEVLWGYRFVPIVSKTKEGKYRVDFHNFGKTVEVETPHCAMCLYNEKDARARMKRGYDAAAAVLSEVDETDDTQM
notes: Expressed in COS-7 cells
